Reference: patent publication US20220348894, “DNA MODIFYING ENZYMES AND ACTIVE FRAGMENTS AND VARIANTS THEREOF AND METHODS OF USE” (LifeEDIT Therapeutics, Inc., published 2022)

Columns and labels:
Details in all cases: tags: SV40 NLS, 3xFLAG, nucleoplasmin NLS
[1] = target: APG06333-nAPG07433.1 (synthetic); assay: cell_activity; A16>G editing, HEK293FT
Description: (§1) 500 ng of plasmid comprising an expression cassette comprising a coding sequence for a fusion protein for each deaminase described in Table 1 and 500 ng of plasmid comprising an expression cassette encoding an sgRNA shown in Table 2 were co-transfected into HEK293FT cells at 75-90% confluency in 24-well plates using Lipofectamine 2000 reagent (Life Technologies). Cells were then incubated at 37° C. for 72 h. Following incubation, genomic DNA was then extracted using NucleoSpin 96 Tissue (Macherey-Nagel) following the manufacturer's protocol. The genomic region flanking the targeted genomic site was PCR amplified using the primers in Table 2 and products were purified using ZR-96 DNA Clean and Concentrator (Zymo Research) following the manufacturer's protocol. The purified PCR products underwent Next Generation Sequencing on Illumina MiSeq. Typically, 100,000 of 250 bp paired-end reads (2×100,000 reads) are generated per amplicon. The reads were analyzed using CRISPResso (Pinello, et al. 2016 Nature Biotech, 34:695-697) to calculate the rates of editing. Output alignments were analyzed for INDEL formation or introduction of specific adenine mutations. Tables 3 through 7 show adenine base editing for each fusion protein comprising nAPG07433.1 and a deaminase from Table 1 and a guide RNA from Table 2. The deaminase component of each fusion protein is indicated. The editing rate for adenines within or proximal to the target sequence is indicated. “A5” indicates, for example, an adenine at position 5 of the target sequence. The position of each nucleotide in the target sequence was determined by numbering the first nucleotide in the target sequence closest to the PAM as position 1, and the position number increases in the […] away from the PAM sequence. The tables also show which nucleotide the adenine was changed to, and at what rate.

[2] = target: APG05174-nAPG07433.1 (synthetic); assay: cell_activity; A16>G editing, HEK293FT
Description: as §1

[3] = target: APG09949-nAPG07433.1 (synthetic); assay: cell_activity; A16>G editing, HEK293FT
Description: as §1

[4] = target: APG09102-nAPG07433.1 (synthetic); assay: cell_activity; A16>G editing, HEK293FT
Description: as §1

[5] = target: APG03724-nAPG07433.1 (synthetic); assay: cell_activity; A16>G editing, HEK293FT
Description: as §1

[6] = target: APG05723-nAPG07433.1 (synthetic); assay: cell_activity; A16>G editing, HEK293FT
Description: as §1

[7] = target: APG08196-nAPG07433.1 (synthetic); assay: cell_activity; A16>G editing, HEK293FT
Description: as §1

[8] = target: APG08449-nAPG07433.1 (synthetic); assay: cell_activity; A16>G editing, HEK293FT
Description: as §1

[9] = target: APG06489-nAPG07433.1 (synthetic); assay: cell_activity; A16>G editing, HEK293FT
Description: as §1

[10] = target: LPG50148-nAPG07433.1 (synthetic); assay: cell_activity; mutated reads, HEK293FT; PAM 3' of target
Description: (§2) 500 ng of plasmid comprising an expression cassette comprising a coding sequence for a fusion protein shown in Table 10 and 500 ng of plasmid comprising an expression cassette encoding for an sgRNA shown in Table 11 were co-transfected into HEK293FT cells at 75-90% confluency in 24-well plates using Lipofectamine 2000 reagent (Life Technologies). Cells were then incubated at 37° C. for 72 h. Following incubation, genomic DNA was then extracted using NucleoSpin 96 Tissue (Macherey-Nagel) following the manufacturer's protocol. The genomic region flanking the targeted genomic site was PCR amplified using the primers in Table 11 and products were purified using ZR-96 DNA Clean and Concentrator (Zymo Research) following the manufacturer's protocol. The purified PCR products underwent Next Generation Sequencing on Illumina MiSeq. Typically, 100,000 of 250 bp paired-end reads (2×100,000 reads) are generated per amplicon. The reads were analyzed using CRISPResso (Pinello, et al. 2016 Nature Biotech, 34:695-697) to calculate the rates of editing. Output alignments were analyzed for INDEL formation or introduction of specific adenine mutations.
(§3) The editing rate for adenines within or proximal to the target sequence is indicated. “A5” indicates, for example, an adenine at position 5 of the target sequence. The position of each nucleotide in the target sequence was determined by numbering the first nucleotide in the target sequence closest to the PAM (which is 3′ of the target for APG07433.1) as position 1, and the position number increases in the 5′ direction away from the PAM sequence. The tables also show which nucleotide the adenine was changed to, and at what rate.

[11] = target: LPG50154-nAPG07433.1 (synthetic); assay: cell_activity; mutated reads, HEK293FT
Description: as §2, §3

[12] = target: LPG50161-nAPG07433.1 (synthetic); assay: cell_activity; mutated reads, HEK293FT
Description: as §2, §3

[13] = target: LPG50153-nAPG07433.1 (synthetic); assay: cell_activity; mutated reads, HEK293FT
Description: as §2, §3

[14] = target: LPG50172-nAPG07433.1 (synthetic); assay: cell_activity; mutated reads, HEK293FT
Description: as §2, §3

[15] = target: LPG50180-nAPG07433.1 (synthetic); assay: cell_activity; mutated reads, HEK293FT
Description: as §2, §3

[16] = target: LPG50140-nAPG07433.1 (synthetic); assay: cell_activity; mutated reads, HEK293FT; PAM 3' of target
Description: as §2, §3

[17] = target: LPG50162-nAPG07433.1 (synthetic); assay: cell_activity; mutated reads, HEK293FT
Description: as §2, §3

[18] = target: LPG50141-nAPG07433.1 (synthetic); assay: cell_activity; mutated reads, HEK293FT
Description: as §2, §3

[19] = target: LPG50151-nAPG07433.1 (synthetic); assay: cell_activity; mutated reads, HEK293FT
Description: as §2, §3

[20] = target: LPG50182-nAPG07433.1 (synthetic); assay: cell_activity; mutated reads, HEK293FT
Description: as §2, §3

[21] = target: LPG50160-nAPG07433.1 (synthetic); assay: cell_activity; mutated reads, HEK293FT
Description: as §2, §3

[22] = target: LPG50150-nAPG07433.1 (synthetic); assay: cell_activity; mutated reads, HEK293FT
Description: as §2, §3

[23] = target: LPG50170-nAPG07433.1 (synthetic); assay: cell_activity; mutated reads, HEK293FT
Description: as §2, §3

[24] = target: LPG50171-nAPG07433.1 (synthetic); assay: cell_activity; mutated reads, HEK293FT
Description: as §2, §3

[25] = target: LPG50147-nAPG07433.1 (synthetic); assay: cell_activity; mutated reads, HEK293FT
Description: as §2, §3

[26] = target: LPG50178-nAPG07433.1 (synthetic); assay: cell_activity; mutated reads, HEK293FT
Description: as §2, §3

[27] = target: LPG50143-nAPG07433.1 (synthetic); assay: cell_activity; mutated reads, HEK293FT
Description: as §2, §3

[28] = target: LPG50177-nAPG07433.1 (synthetic); assay: cell_activity; mutated reads, HEK293FT
Description: as §2, §3

[29] = target: LPG50149-nAPG07433.1 (synthetic); assay: cell_activity; mutated reads, HEK293FT
Description: as §2, §3

[30] = target: LPG50174-nAPG07433.1 (synthetic); assay: cell_activity; mutated reads, HEK293FT
Description: as §2, §3

[31] = target: LPG50164-nAPG07433.1 (synthetic); assay: cell_activity; mutated reads, HEK293FT
Description: as §2, §3

[32] = target: LPG50181-nAPG07433.1 (synthetic); assay: cell_activity; mutated reads, HEK293FT
Description: as §2, §3

[33] = target: LPG50157-nAPG07433.1 (synthetic); assay: cell_activity; mutated reads, HEK293FT
Description: as §2, §3

[34] = target: LPG50152-nAPG07433.1 (synthetic); assay: cell_activity; mutated reads, HEK293FT
Description: as §2, §3

[35] = target: LPG50166-nAPG07433.1 (synthetic); assay: cell_activity; mutated reads, HEK293FT
Description: as §2, §3

[36] = target: LPG50145-nAPG07433.1 (synthetic); assay: cell_activity; mutated reads, HEK293FT
Description: as §2, §3

[37] = target: LPG50158-nAPG07433.1 (synthetic); assay: cell_activity; mutated reads, HEK293FT
Description: as §2, §3

[38] = target: LPG50165-nAPG07433.1 (synthetic); assay: cell_activity; mutated reads, HEK293FT
Description: as §2, §3

[39] = target: LPG50168-nAPG07433.1 (synthetic); assay: cell_activity; mutated reads, HEK293FT
Description: as §2, §3

[40] = target: LPG50173-nAPG07433.1 (synthetic); assay: cell_activity; mutated reads, HEK293FT
Description: as §2, §3

[41] = target: LPG50159-nAPG07433.1 (synthetic); assay: cell_activity; mutated reads, HEK293FT
Description: as §2, §3

[42] = target: LPG50163-nAPG07433.1 (synthetic); assay: cell_activity; mutated reads, HEK293FT
Description: as §2, §3

[43] = target: LPG50156-nAPG07433.1 (synthetic); assay: cell_activity; mutated reads, HEK293FT
Description: as §2, §3

[44] = target: LPG50144-nAPG07433.1 (synthetic); assay: cell_activity; mutated reads, HEK293FT
Description: as §2, §3

[45] = target: LPG50175-nAPG07433.1 (synthetic); assay: cell_activity; mutated reads, HEK293FT
Description: as §2, §3

[46] = target: LPG50169-nAPG07433.1 (synthetic); assay: cell_activity; mutated reads, HEK293FT
Description: as §2, §3

[47] = target: LPG50155-nAPG07433.1 (synthetic); assay: cell_activity; mutated reads, HEK293FT
Description: as §2, §3

[48] = target: LPG50142-nAPG07433.1 (synthetic); assay: cell_activity; mutated reads, HEK293FT
Description: as §2, §3

[49] = target: LPG50146-nAPG07433.1 (synthetic); assay: cell_activity; mutated reads, HEK293FT
Description: as §2, §3

[50] = target: LPG50179-nAPG07433.1 (synthetic); assay: cell_activity; mutated reads, HEK293FT
Description: as §2, §3

[51] = target: LPG50167-nAPG07433.1 (synthetic); assay: cell_activity; mutated reads, HEK293FT
Description: as §2, §3

[52] = target: LPG50176-nAPG07433.1 (synthetic); assay: cell_activity; mutated reads, HEK293FT
Description: as §2, §3

Chain of LPG50148-nAPG07433.1 (synthetic) (chain, as listed by the source): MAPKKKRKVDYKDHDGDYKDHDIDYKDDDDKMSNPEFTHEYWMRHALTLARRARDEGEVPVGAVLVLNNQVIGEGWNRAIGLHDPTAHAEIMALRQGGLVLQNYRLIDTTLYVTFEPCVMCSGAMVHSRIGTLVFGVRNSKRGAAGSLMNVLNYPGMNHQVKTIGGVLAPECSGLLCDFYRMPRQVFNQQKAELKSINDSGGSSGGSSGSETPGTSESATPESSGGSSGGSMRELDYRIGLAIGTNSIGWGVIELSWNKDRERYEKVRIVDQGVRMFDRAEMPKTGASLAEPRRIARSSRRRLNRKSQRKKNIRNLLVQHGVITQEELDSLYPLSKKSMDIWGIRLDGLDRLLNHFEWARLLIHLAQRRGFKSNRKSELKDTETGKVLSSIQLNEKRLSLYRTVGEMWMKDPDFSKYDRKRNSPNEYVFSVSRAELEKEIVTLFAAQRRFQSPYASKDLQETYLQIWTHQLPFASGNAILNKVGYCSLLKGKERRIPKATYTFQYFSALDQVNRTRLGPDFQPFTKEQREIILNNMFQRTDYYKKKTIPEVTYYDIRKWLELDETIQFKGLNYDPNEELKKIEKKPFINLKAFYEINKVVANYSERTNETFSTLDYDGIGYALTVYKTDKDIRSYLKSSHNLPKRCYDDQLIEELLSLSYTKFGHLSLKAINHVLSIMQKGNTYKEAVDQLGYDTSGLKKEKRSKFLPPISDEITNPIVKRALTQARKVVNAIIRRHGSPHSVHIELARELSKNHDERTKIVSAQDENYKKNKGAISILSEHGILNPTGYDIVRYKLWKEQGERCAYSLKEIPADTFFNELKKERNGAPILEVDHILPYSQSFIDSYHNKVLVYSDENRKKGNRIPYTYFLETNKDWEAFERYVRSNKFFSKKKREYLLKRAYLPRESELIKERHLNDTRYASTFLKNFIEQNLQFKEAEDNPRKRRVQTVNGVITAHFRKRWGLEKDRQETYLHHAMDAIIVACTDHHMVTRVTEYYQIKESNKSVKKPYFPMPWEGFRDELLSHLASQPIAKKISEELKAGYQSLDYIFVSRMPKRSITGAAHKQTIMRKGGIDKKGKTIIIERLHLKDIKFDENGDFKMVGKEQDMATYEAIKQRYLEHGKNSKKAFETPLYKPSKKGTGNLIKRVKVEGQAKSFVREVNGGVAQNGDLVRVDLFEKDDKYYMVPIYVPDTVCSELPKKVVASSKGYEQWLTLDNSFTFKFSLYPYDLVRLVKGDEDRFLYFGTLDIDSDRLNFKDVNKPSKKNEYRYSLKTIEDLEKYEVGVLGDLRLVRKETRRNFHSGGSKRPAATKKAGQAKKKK
Chain of LPG50153-nAPG07433.1 (synthetic) (chain, as listed by the source): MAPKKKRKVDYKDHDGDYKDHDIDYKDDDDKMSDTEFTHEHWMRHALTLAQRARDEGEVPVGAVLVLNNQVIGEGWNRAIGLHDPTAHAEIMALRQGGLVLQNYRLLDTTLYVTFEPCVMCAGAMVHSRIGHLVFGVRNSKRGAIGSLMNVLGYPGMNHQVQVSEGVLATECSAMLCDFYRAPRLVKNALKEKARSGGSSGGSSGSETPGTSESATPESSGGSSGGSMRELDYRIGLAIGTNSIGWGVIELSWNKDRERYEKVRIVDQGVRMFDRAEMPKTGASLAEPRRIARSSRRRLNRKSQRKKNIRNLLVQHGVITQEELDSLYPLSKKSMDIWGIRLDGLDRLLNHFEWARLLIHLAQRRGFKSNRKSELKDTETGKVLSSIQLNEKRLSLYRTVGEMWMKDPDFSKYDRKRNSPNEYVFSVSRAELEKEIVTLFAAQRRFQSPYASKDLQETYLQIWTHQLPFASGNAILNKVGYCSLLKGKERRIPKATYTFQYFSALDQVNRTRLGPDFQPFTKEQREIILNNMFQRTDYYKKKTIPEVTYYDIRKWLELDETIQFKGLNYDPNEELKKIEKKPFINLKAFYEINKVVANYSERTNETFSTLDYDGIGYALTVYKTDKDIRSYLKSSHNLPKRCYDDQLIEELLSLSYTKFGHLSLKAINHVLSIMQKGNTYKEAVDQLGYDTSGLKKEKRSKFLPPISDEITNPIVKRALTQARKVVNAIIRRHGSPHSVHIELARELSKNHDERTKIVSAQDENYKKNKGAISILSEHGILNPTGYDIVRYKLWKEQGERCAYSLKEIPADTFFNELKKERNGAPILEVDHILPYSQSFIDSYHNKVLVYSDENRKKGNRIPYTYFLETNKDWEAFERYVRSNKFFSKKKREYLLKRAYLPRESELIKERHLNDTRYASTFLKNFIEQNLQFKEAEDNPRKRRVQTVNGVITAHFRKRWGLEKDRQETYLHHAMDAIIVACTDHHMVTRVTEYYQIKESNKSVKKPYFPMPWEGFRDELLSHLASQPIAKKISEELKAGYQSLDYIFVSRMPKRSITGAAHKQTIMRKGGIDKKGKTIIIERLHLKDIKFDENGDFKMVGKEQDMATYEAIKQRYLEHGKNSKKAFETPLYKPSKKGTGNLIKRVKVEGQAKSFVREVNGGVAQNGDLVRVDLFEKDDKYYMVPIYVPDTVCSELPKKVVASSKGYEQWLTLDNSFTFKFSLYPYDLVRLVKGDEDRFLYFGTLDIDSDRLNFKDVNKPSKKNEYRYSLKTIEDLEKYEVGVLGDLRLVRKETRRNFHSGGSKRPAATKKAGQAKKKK
Chain of APG06489-nAPG07433.1 (synthetic) (chain, as listed by the source): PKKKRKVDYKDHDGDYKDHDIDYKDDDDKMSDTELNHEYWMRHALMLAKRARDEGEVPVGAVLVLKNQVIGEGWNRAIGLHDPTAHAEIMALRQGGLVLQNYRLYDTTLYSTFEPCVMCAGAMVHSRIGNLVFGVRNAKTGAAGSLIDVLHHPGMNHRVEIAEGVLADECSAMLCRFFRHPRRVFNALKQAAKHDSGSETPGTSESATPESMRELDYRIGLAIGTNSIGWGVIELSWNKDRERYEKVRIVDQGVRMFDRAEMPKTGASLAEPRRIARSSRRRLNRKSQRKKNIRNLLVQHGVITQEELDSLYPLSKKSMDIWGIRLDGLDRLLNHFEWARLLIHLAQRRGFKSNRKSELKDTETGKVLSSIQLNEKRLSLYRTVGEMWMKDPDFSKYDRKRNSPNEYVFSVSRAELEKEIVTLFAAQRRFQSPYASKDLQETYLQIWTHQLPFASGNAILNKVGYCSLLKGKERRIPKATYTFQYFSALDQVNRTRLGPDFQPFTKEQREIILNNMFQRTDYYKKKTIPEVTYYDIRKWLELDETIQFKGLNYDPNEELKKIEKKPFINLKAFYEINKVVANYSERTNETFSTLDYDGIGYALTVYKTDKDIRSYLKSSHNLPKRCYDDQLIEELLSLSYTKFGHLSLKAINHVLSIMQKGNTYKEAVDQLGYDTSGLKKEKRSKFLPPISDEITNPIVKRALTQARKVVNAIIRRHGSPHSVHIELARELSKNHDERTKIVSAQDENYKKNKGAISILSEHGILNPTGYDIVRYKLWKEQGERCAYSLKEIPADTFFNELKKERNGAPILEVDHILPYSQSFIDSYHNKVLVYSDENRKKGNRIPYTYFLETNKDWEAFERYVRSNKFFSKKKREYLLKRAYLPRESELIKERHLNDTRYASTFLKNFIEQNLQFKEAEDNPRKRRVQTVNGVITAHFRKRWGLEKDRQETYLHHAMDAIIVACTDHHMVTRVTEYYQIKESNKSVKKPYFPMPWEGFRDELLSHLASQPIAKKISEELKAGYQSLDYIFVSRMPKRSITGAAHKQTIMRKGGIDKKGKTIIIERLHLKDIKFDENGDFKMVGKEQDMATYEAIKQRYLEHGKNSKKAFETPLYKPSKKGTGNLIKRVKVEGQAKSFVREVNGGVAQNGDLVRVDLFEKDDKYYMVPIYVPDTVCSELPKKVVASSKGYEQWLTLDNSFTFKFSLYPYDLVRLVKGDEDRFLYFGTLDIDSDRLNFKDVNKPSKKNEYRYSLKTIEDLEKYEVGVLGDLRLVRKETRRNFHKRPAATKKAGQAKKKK

B1: SGN000186 sgRNA (Table 2) ; SGN000186 target (Table 2) (ssRNA ; dsDNA)
RNA: GGACAGUGCGCAUCUCCCUGGUCAUAGUUCCAUUAAAGCCAAAAGUGGCUUUGAUGUUUCUAUGAUAAGGGUUUCGACCCGUGGCGUCGGGGAUCGCCUGCCCAUUGAAAUGGGCUUCUCCCCAUUUAUU
DNA 1: GGACAGTGCGCATCTCCCTG
DNA 2: CAGGGAGATGCGCACTGTCC
activity [1]: 4.2%
activity [2]: 3.2%
activity [3]: 3.4%
activity [4]: 6.2%
activity [5]: 4.1%
activity [6]: 1.9%
activity [7]: 3.3%
activity [8]: 5.3%
activity [9]: 2.5%

B2: SGN001681 sgRNA ; SGN001681 target (ssRNA ; dsDNA)
RNA: CCGUGCCUUGACCUACCCUGGUCAUAGUUCCAUUAAAGCCAAAAGUGGCUUUGAUGUUUCUAUGAUAAGGGUUUCGACCCGUGGCGUCGGGGAUCGCCUGCCCAUUGAAAUGGGCUUCUCCCCAUUUAUU
DNA 1: CCGTGCCTTGACCTACCCTG
DNA 2: CAGGGTAGGTCAAGGCACGG
activity [10]: 49.4%
activity [11]: 2.26%
activity [12]: 1.47%
activity [13]: 1.12%
activity [14]: 1.78%
activity [15]: 1.8%

B3: SGN000186 sgRNA (Table 11) ; SGN000186 target (Table 11) (ssRNA ; dsDNA)
RNA: B1 RNA
DNA 1: GGACAGTGCGCATCTCCCTG
DNA 2: CAGGGAGATGCGCACTGTCC
activity [16]: 18.8%
activity [10]: 32.6%
activity [17]: 14%
activity [18]: 9.79%
activity [19]: 7.76%
activity [20]: 9%
activity [21]: 16%
activity [22]: 23.7%
activity [23]: 12.2%
activity [24]: 12.7%
activity [25]: 12.6%
activity [26]: 12.9%
activity [27]: 10.6%
activity [28]: 11%
activity [29]: 22.1%
activity [30]: 8%
activity [31]: 7.38%
activity [32]: 12.6%
activity [33]: 12.2%
activity [34]: 18%
activity [35]: 8%
activity [36]: 9.93%
activity [37]: 4.91%
activity [38]: 9.88%
activity [39]: 7%
activity [40]: 7.88%
activity [41]: 6.99%
activity [42]: 10%
activity [43]: 12.7%
activity [44]: 12.2%
activity [45]: 14%
activity [46]: 13%
activity [47]: 17%
activity [48]: 14.1%
activity [49]: 17.8%
activity [50]: 12.5%
activity [51]: 8%
activity [52]: 7%
